Assay results as given in patent publication US20200093883A1 (published 2020).
Square brackets hold non-standard residues; d marks the D form. Ends that are not written are not given here.

Legend:
Assay in all cases: AlphaScreen
[1] = biological target: hJNK1
[2] = biological target: hJNK3
[3] = biological target: hJNK2

B1: SEQ ID NO: 172 (peptide)
peptide: [dR]KKR[dR]QRR[dR]RP[dK]RP[dA]TLNL[dF]-NH2
modifications: N-terminus assumed
SMILES: CC(C)C[C@H](NC(=O)[C@H](CC(N)=O)NC(=O)[C@H](CC(C)C)NC(=O)[C@@H](NC(=O)[C@@H](C)NC(=O)[C@@H]1CCCN1C(=O)[C@H](CCCNC(=N)N)NC(=O)[C@@H](CCCCN)NC(=O)[C@@H]1CCCN1C(=O)[C@H](CCCNC(=N)N)NC(=O)[C@@H](CCCNC(=N)N)NC(=O)[C@H](CCCNC(=N)N)NC(=O)[C@H](CCCNC(=N)N)NC(=O)[C@H](CCC(N)=O)NC(=O)[C@@H](CCCNC(=N)N)NC(=O)[C@H](CCCNC(=N)N)NC(=O)[C@H](CCCCN)NC(=O)[C@H](CCCCN)NC(=O)[C@H](N)CCCNC(=N)N)[C@@H](C)O)C(=O)N[C@H](Cc1ccccc1)C(N)=O
In the case of B1, the IC50 [1] is reported as 0.722 µM, the IC50 [2] is reported as 0.102 µM and the IC50 [3] is reported as 0.0547 µM.

[dD][dQ][dS][dR][dP][dV][dQ][dP][dF][dL][dN][dL][dT][dT][dP][dR][dK][dP][dR][dP][dP][dR][dR][dR][dQ][dR][dR][dK][dK][dR]G [SEQ ID NO: 197] was tested, and the IC50 [1] was 24.4 µM, the IC50 [2] was 1.29 µM and the IC50 [3] was 0.802 µM.
